This is an account of results in article PMC3456991 (Journal of molecular biology, 2012).

Where two headings read alike, the source gives them in different places. Where only a bound is given, the exact number is not on record here.

A word on the stoichiometry N: it is a count of units in the complex or per binding partner. One may read the Kd as the constant that tells how readily two partners part at equilibrium. A higher Kd goes with a looser complex.

Series [1] deals with the molecule itself. Put plainly: NMR chemical shift comparison of monomer and dimer.
Series [2] deals with the molecule itself. Put plainly: SEC. For orientation: Size exclusion chromatography separates by hydrodynamic size, large species first.
The series “SEC-MALS” concerns the molecule itself. Put plainly: SEC-MALS.
Series [3] concerns the molecule itself. Put plainly: SEC. The source holds these as a separate data set.
Series [4] deals with the molecule itself. Put plainly: SEC. The source holds these as a separate data set.

B1: Fis1ΔTM (1-126) without a linker or affinity tag, for NMR (domain or fragment, Saccharomyces cerevisiae, UniProt P40515 1-126, looked up)
chain: MTKVDFWPTLKDAYEPLYPQQLEILRQQVVSEGGPTATIQSRFNYAWGLIKSTDVNDERLGVKILTDIYKEAESRRRECLYYLTIGCYKLGEYSMAKRYVDTLFEHERNNKQVGALKSMVEDKIQK
As for B1, the binding result in series [1] is given as “binds”.

B2: Fis1ΔTM-C79S/C87S (domain or fragment, Saccharomyces cerevisiae)
chain: MMTKVDFWPTLKDAYEPLYPQQLEILRQQVVSEGGPTATIQSRFNYAWGLIKSTDVNDERLGVKILTDIYKEAESRRRESLYYLTIGSYKLGEYSMAKRYVDTLFEHERNNKQVGALKSMVEDKIQKE
For B2, in “SEC [2]”, the binding result is given as “binds”.

B3: Fis1ΔTM-3 (E78D/I85T/Y88H) (domain or fragment, Saccharomyces cerevisiae)
chain: MMTKVDFWPTLKDAYEPLYPQQLEILRQQVVSEGGPTATIQSRFNYAWGLIKSTDVNDERLGVKILTDIYKEAESRRRDCLYYLTTGCHKLGEYSMAKRYVDTLFEHERNNKQVGALKSMVEDKIQKE
Take B3: the binding result in the series “SEC [2]” was “binds”.

B4: Fis1ΔTM (1-127), wild type cytoplasmic domain of yeast Fis1 (domain or fragment, Saccharomyces cerevisiae)
chain: MMTKVDFWPTLKDAYEPLYPQQLEILRQQVVSEGGPTATIQSRFNYAWGLIKSTDVNDERLGVKILTDIYKEAESRRRECLYYLTIGCYKLGEYSMAKRYVDTLFEHERNNKQVGALKSMVEDKIQKE
Take B4: the “stoichiometry N” value in the series “SEC-MALS” was 2. The values for the Kd in “SEC [3]” and in “SEC [4]” were 0.24 ± 0.08 µM and 15 ± 3 µM, respectively.

B5: Fis1ΔTM-A72P (domain or fragment, Saccharomyces cerevisiae)
chain: MMTKVDFWPTLKDAYEPLYPQQLEILRQQVVSEGGPTATIQSRFNYAWGLIKSTDVNDERLGVKILTDIYKEPESRRRECLYYLTIGCYKLGEYSMAKRYVDTLFEHERNNKQVGALKSMVEDKIQKE
As for B5, the equilibrium dissociation constant (Kd) in the series “SEC [4]” is not below 3000 µM.
